Source: publication PMC6355916, “MITF has a central role in regulating starvation-induced autophagy in melanoma”

B1: E-box (dsDNA)
DNA 1: GAGACCACGTGTTGAC
DNA 2: GTCAACACGTGGTCTC
B2: CLEAR-box (FA) (dsDNA)
DNA 1: GAGATCACGTGATGAC
DNA 2: GTCATCACGTGATCTC
B3: M-box (dsDNA)
DNA 1: GAGATCATGTGTTGAC
DNA 2: GTCAACACATGATCTC

Target: MITF (UniProt Q08874 287-403)
Assay: fluorescence anisotropy; FA: 0.5 nM dsDNA, 10 mM Tris/HCl pH 7.5, 300 mM NaCl, 0.01% Triton X-100, 0.1 mg/mL BSA, 25 °C, 5 min; fit one MITF dimer per dsDNA. Crystals: 0.9 M sodium malonate pH 5.5
Conditions: protein: recombinant; chain copies: 2; label: 3' fluorescein on strand 1; blunt

MITF, sequence (Q08874 287-403): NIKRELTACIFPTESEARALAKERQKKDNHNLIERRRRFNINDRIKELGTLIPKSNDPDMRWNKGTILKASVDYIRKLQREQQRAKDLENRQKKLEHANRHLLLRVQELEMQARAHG

B1 and B2 are within error of each other in Kd: 1.5 ± 0.3 nM for the first, 0.9 ± 0.3 nM for the second.

With B3 the Kd was 2.6 ± 0.4 nM.
